Here are results for seven molecules from patent US20200331991A1 (Teva, published 2020).

T1: human α-CGRP 26-37 (human)
T1 peptide: NFVPTNVGSKAF-NH2

T2: rat α-CGRP (1-37) (rat, C-terminal amide; N-terminal biotin when captured on the SA chip)
T2 construct: also called rat α (1-37); α-rat
T2 peptide: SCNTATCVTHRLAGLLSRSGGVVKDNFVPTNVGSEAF

T3: human β-CGRP (1-37) (human, not fully specified; C-terminal amide; N-terminal biotin when captured on the SA chip)
T3 construct: also called human β (1-37)
T3 peptide: T2 peptide with S1A, V22M, D25S, E35K

T4: rat β-CGRP (1-37) (rat, C-terminal amide; N-terminal biotin when captured on the SA chip)
T4 construct: also called rat β (1-37)
T4 peptide: T2 peptide with E35K

T5: human α-CGRP 8-37 (human, C-terminal amide)
T5 peptide: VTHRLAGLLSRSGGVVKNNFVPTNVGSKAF

T6: human α-CGRP P29A (19-37) (human)
T6 peptide: SGGVVKNNFVATNVGSKAF-NH2

T7: human α-CGRP K35A (19-37) (human, not fully specified)
T7 peptide: SGGVVKNNFVPTNVGSAAF-NH2

T8: human α-CGRP K35E (19-37) (human, not fully specified)
T8 peptide: SGGVVKNNFVPTNVGSEAF-NH2

T9: human α-CGRP K35M (19-37) (human, not fully specified)
T9 peptide: SGGVVKNNFVPTNVGSMAF-NH2

T10: human α-CGRP 1-36-COOH (human, free C-terminus (not amidated))
T10 construct: also called 1-36 (not amidated at the C-terminus)
T10 peptide: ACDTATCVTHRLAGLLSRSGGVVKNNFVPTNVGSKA

B1: human α-CGRP 1-13-COOH (peptide)
peptide: ACDTATCVTHRLA-OH
modifications: ends and bridges not checked
B2: Human amylin (1-37) (peptide)
peptide: KCNTATCATQRLANFLVHSSNNFGAILSSTNVGSNTY-NH2
modifications: ends and bridges not checked
B3: Human calcitonin (1-32) (peptide)
peptide: CGNLSTCMLGTYTQDFNKFHTFPQTAIGVGAP-NH2
modifications: ends and bridges not checked
B4: 19-36 CONH2 (peptide)
peptide: SGGVVKNNFVPTNVGSKA-NH2
notes: also called human α-CGRP 19-36, amidated at the C-terminus
B5: human α-CGRP 1-19-COOH (peptide)
peptide: ACDTATCVTHRLAGLLSRS-OH
modifications: ends and bridges not checked
B6: Human adrenomedullin (1-52) (peptide)
peptide: YRQSMNNFQGLRSFGCRFGTCTVQKLAHQIYQFTDKDKDNVAPRSKISPQGY-NH2
modifications: ends and bridges not checked
B7: antibody G1 Fab fragment (Fab, V domains shown)
VH: EVQLVESGGGLVQPGGSLRLSCAASGFTFSNYWISWVRQAPGKGLEWVAEIRSESDASATHYAEAVKGRFTISRDNAKNSLYLQMNSLRAEDTAVYYCLAYFDYGLAIQNYWGQGTLVTVSS
VL: EIVLTQSPATLSLSPGERATLSCKASKRVTTYVSWYQQKPGQAPRLLIYGASNRYLGIPARFSGSGSGTDFTLTISSLEPEDFAVYYCSQSYNYPYTFGQGTKLEIK

Assay [1] deals with B7. Nature of the assay: Biacore competition: G1 Fab 50 nM pre-incubated 1 h with 10 uM peptide, then over biotinylated human α-CGRP on SA chip. An excerpt: (§1) Y axis represents percentage of binding blocked by the presence of the competing peptide compared with the binding in the absence of the competing peptide.
(§2) All these peptides are amidated at the C-terminus.
For orientation: Surface plasmon resonance follows binding to a sensor surface in real time, without labels.

In assay [2] the target is human α-CGRP 19-36-COOH (human, Table 4: free C-terminus (COOH); paragraph 375 calls it amidated at the C-terminus). Description: Biacore peptide competition (FIG. 6).
From the text: as §1, §2

The target of assay [3] is B5. Nature of the assay: Biacore peptide competition (FIG. 6).
From the text: as §1, §2

The target in assay [4] is B1. Description: Biacore peptide competition (FIG. 6).
From the text: as §1, §2

For assay [5], the target named is B3. Nature of the assay: Biacore peptide competition (FIG. 6).
From the text: as §1, §2

The target of assay [6] is B2. Description: Biacore peptide competition (FIG. 6).
From the text: as §1, §2

Assay [7] concerns the target B6. Nature of the assay: Biacore peptide competition (FIG. 6).
From the text: as §1, §2

The target of assay [8] is T1, human α-CGRP 26-37. Nature of the assay: Biacore: 50 nM G1 Fab with 10 uM competing peptide in solution, over human α-CGRP on chip.
From the text: as §1, §2

The target of assay [9] is T2, rat α-CGRP (1-37). The assay is described as above.
From the text: as §1, §2

In assay [10] the target is T3, human β-CGRP (1-37). The assay is described as above.
From the text: as §1, §2

In assay [11] the target is T4, rat β-CGRP (1-37). The assay is described as above.
From the text: as §1, §2

Assay [12] has as its target T5, human α-CGRP 8-37. The assay is described as above.
From the text: as §1, §2

Assay [13] addresses T6, human α-CGRP P29A (19-37). The assay is described as above.
From the text: as §1, §2

The target of assay [14] is T7, human α-CGRP K35A (19-37). The assay is described as above.
From the text: as §1, §2

In assay [15] the target is T8, human α-CGRP K35E (19-37). The assay is described as above.
From the text: as §1, §2

In assay [16] the target is T9, human α-CGRP K35M (19-37). Described as above.
From the text: as §1, §2

Assay [17] addresses T10, human α-CGRP 1-36-COOH. Described as above.

Residue numbers refer to the chain shown, from its start. Where no end group is shown, it is not given here.

As for B1, the binding result in assay [1] is recorded as “no binding (tested: 10 uM)”.
In the case of B2, in assay [1], the binding result is listed as “no binding (tested: 10 uM)”.
For B3, the binding result in assay [1] is given as “no binding (tested: 10 uM)”.
As to B4, in assay [1], the “% Binding blocked” value worked out at 0.6% and the binding result was “no binding (tested: 10 uM)”.
As for B5, the binding result in assay [1] is recorded as “no binding (tested: 10 uM)”.
The same measure, in the same setting: in the case of B6 it was “no binding (tested: 10 uM)”.
B7: the binding result in assay [2], in assay [3], in assay [4], in assay [5], in assay [6] and in assay [7] was “no binding (tested: 10 uM peptide in 50 nM G1 Fab)” throughout. Also, the “% of binding blocked by competing peptide” value in assay [8], in [9], in assay [10], in assay [11], in assay [12] and in assay [13] was 100% in each case. In addition, the “% of binding blocked by competing peptide” value is 100% in [14], 100% in assay [15], 100% in assay [16] and roughly 40% in [17].
